We go through three molecules from patent publication US20220227882A1 (TRUSTEES OF TUFTS COLLEGE, published 2022).

In assay [1] the target is T1, Recombinant human ADAM8 (rHuADAM8) ectodomain protein (aa 17-497), ACRO Biosystems AD8-H5223 (human, UniProt P78325 17-497).
T1 construct: Bought protein made in HEK293 cells; The protein clips off its own prodomain (aa 17-191); also called rhADAM8; immunogen
T1 sequence: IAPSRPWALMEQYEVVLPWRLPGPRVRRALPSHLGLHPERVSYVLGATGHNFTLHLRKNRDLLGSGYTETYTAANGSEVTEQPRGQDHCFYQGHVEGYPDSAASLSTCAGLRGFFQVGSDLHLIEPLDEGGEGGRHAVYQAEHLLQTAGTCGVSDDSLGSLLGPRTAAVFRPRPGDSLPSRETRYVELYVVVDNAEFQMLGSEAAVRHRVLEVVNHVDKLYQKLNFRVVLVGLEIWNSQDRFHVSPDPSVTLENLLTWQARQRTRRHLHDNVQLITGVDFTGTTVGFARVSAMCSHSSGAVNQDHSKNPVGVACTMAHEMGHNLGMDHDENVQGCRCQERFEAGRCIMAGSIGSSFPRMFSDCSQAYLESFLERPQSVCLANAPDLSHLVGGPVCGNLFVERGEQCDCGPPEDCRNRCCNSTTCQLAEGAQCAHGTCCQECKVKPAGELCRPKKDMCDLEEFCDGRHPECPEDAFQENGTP
The assay is described as follows: ELISA, coated rHuADAM8. How it is done: ELISAs were performed to assess the anti-ADAM8 antibodies for binding to rHuADAM8 during preparation and screening stages, using mouse sera, hybridoma supernatants and purified mouse and chimeric ADPs. ELISA plates (96-well) were coated with 1 μg/ml rHuADAM8 (Acro Biosystems, AD8-H5223) overnight at 4° C. Plates were washed three times with phosphate buffered saline (PBS) containing 0.05% Tween 20 (PBST) and blocked with 1% bovine serum albumin (BSA) in PBST at 37° C. for 1 hr. Plates were then exposed to sera, supernatants or purified antibodies for 1 hour at 37° C.
For analysis of antibodies in the serum of mice, pre-bleed and test bleed samples in 6 dilutions ranging from 1:100 to 1:10,000,000 were tested. For analysis of antibodies in hybridoma clone and subclone supernatants, plates were subjected to 50 μl of supernatants. A test bleed sample (1:1000) and hybridoma culture medium were used as positive and negative controls, respectively. For purified antibody characterization, coated plates were incubated with eight increasing concentrations of each specific ADP ranging from 10⁻⁵ to 10³ nM. Normal mouse IgG (1 μg/ml) was used as a negative control to indicate the level of general non-specific binding and a test bleed sample (1:100) was used as a positive control. Samples were washed three times with PBST and incubated for 30 minutes at 37° C. with a secondary goat anti-mouse IgG (Fc specific)-HRP antibody (Sigma A0168, 1:5000). After washing three times with PBST, the signal was developed with addition of 100 μl of the horseradish peroxidase substrate 3,3′,5,5′-Tetramethylbenzidine (TMB) for 10 minutes at room temperature, followed by quenching with 50 μl 1N HCl. Signal was read in a 96-well spectrophotometer at an optical density (OD) of 450 nm.

Assay [2] concerns the target T2, Recombinant human ADAM15 (Sino Biological, 10517-H08H) (human, UniProt Q13444 18-696).
T2 sequence (looked up): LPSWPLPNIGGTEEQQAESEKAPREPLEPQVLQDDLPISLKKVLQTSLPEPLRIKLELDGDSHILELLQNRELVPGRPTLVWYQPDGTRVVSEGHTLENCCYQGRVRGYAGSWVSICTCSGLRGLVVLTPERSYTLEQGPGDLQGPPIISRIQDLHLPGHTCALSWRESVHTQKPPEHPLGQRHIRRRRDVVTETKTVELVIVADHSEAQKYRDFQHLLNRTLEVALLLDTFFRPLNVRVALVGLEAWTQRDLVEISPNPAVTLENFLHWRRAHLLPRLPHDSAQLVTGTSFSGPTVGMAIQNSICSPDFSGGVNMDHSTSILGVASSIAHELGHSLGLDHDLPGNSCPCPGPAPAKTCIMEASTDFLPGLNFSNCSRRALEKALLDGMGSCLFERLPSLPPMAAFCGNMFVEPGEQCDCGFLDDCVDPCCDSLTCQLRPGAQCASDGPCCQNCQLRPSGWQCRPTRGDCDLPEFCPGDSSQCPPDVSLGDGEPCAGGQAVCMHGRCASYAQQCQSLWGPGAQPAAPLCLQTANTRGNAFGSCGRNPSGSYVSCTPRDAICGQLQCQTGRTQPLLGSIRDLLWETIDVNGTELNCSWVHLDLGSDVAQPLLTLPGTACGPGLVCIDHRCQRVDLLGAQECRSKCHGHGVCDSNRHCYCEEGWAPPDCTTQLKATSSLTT
The experiment in a line: ELISA, coated recombinant ADAM15.

B1: ADP13 (antibody, IgG1, V domains shown)
VH: EVQLQQSGPEMVKPGTSVKISCKASGYTFTDYYINWVKQSHGKSLEWIGDISPNIGGATYNPKFKGKAILTVDKSARTAYMELRSLTSEDSAVYCCTRGGSSYPYFYAMDYWGQGTSVTVSS
VL: DIVMSQSPSSLAVSVGEKVTMSCKSSQSLLYSSNQKKYLAWYQQKPGQSPKLLIYWASTRESGVPDRFTGSGSGTDFTLTISSVKAEDLAVYYCQQFYSYPYTFGGGTKLEINR
notes: also called mADP13; mouse ADP13
As for B1, the EC50 in assay [1] was 0.054 nM. Besides, in assay [2], the “OD 450nm” value amounted to 0.09 OD450nm and the binding result is given as “no binding (tested: 1 µg/ml)”.

B2: ADP3 (antibody, IgG1, V domains shown)
VH: EVKLEESGGGLVQPGGSMKLSCAASGFTFSDAWMDWVRQSPEKGLEWVAEIRGKVNNLATYYVESVKGRFTISRDDSKSSVYLQMNSLRAEDTGIYYCLGRYDATYAMDYWGQGTSVTVSS
VL: DVVMTQTPLSLPVSLGDQASISCRSSQSLVHSDGNTYLHWYLQKPGQSPKLLIYKLSNRFSGVPDRFSGSGSGTDFTLKISRVEAEDLGVYFCSQSTHVPWTFGGGTKLEIK
On to B2, for which, in assay [1], the half-maximal effective concentration (EC50) came out at 0.049 nM. In assay [2], the “OD 450nm” value was determined as 0.17 OD450nm and the binding result is listed as “no binding (tested: 1 µg/ml)”.

B3: ADP2 (antibody, V domains shown)
VH: EVKLVESGGGLVQPGGSLSLSCAASGFSFPDYYMSWVRQPPGKALEWLGFIRDSANGYTTEYIASVKGRFTFSRDNSQSILYLQMNALRAEDSATYYCARYSRYYGMDYWGQGTSVTVSS
VL: SIVMTQTPKILLVSAGDRVTITCKASQTVNYDVAWYQQKPGQSPKPVIYFASNRYTGVPDRFTGSGFGTDFTFTISTVQAEDLAVYFCQQDYSAPWTFGGGTKLEIK
notes: also called mADP2; mouse ADP2
For the molecule B3, the EC50 in assay [1] worked out at 0.029 nM. Moreover, the “OD 450nm” value in assay [2] came out at 0.16 OD450nm.
